Tests used:
Test in all cases: Western blot, E. coli lysate, reducing gel
[1] = molecular target: T1, CDH3 protein Fragment 2 (positions 132 to 348 of SEQ ID NO: 38) (human, UniProt P22223 132-348)
T1 construct: Expressed in E. coli Rosetta 2; the lysate was run on a reducing gel and blotted; not shown: N-terminal fusion part supplied by the vector pCold TF (His tag, trigger factor, linker to the KpnI site)
Description: (§1) The above-described Escherichia coli lysate, in which each of the above-mentioned CDH3 protein fragments had been expressed, was charged to 5%-20% gradient gel (Bio-Rad) under reductive conditions, followed by performing electrophoresis. Thereafter, using a blotting device (Bio-Rad), the resultant was transferred on Immobilon P membrane (Millipore). The transfer membrane was lightly washed with TBS-T (0.05% Tween 20, TBS), and it was then shaken in […] BSA-containing TBS for 1 hour. […] The obtained mixture was shaken for 1 hour. Thereafter, the reaction product was washed with TBS-T, and a HRP-anti-mouse IgG antibody (GE Healthcare Biosciences) diluted with 10% Block Ace-containing TBS-T was added thereto, followed by shaking the obtained mixture for 1 hour. Subsequently, the reaction product was washed with TBS-T. Using ECL-Plus (GE Healthcare Biosciences), color development was detected with X-ray film RX-u (Fujifilm Corporation) in accordance with the instructions provided by the manufacturer.

[2] = molecular target: T2, CDH3 protein Fragment 3 (positions 237 to 461 of SEQ ID NO: 38) (human, UniProt P22223 237-461)
T2 construct: Expressed in E. coli Rosetta 2; the lysate was run on a reducing gel and blotted; not shown: N-terminal fusion part supplied by the vector pCold TF (His tag, trigger factor, linker to the KpnI site)
Description: as §1

[3] = molecular target: T3, CDH3 protein Fragment 4 (positions 349 to 550 of SEQ ID NO: 38) (human, UniProt P22223 349-550)
T3 construct: Expressed in E. coli Rosetta 2; the lysate was run on a reducing gel and blotted; not shown: N-terminal fusion part supplied by the vector pCold TF (His tag, trigger factor, linker to the KpnI site)
Description: as §1

[4] = molecular target: T4, CDH3 protein Fragment 5 (positions 462 to 654 of SEQ ID NO: 38) (human, UniProt P22223 462-654)
T4 construct: Expressed in E. coli Rosetta 2; the lysate was run on a reducing gel and blotted; not shown: N-terminal fusion part supplied by the vector pCold TF (His tag, trigger factor, linker to the KpnI site)
Description: as §1

T3 sequence (P22223 349-550 limits assumed): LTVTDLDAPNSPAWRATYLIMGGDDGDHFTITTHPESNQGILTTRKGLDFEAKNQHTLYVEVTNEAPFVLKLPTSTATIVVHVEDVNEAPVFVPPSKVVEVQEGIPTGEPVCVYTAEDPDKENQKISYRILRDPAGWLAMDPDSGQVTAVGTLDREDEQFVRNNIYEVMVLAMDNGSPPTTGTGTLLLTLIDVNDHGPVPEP
T1 sequence (P22223 132-348 limits assumed): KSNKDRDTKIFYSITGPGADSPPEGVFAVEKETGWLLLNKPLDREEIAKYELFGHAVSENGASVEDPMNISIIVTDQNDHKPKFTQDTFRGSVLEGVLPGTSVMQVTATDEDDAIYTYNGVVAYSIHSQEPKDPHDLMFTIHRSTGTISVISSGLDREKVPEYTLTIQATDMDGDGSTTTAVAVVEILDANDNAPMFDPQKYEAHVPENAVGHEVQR
T2 sequence (P22223 237-461 limits assumed): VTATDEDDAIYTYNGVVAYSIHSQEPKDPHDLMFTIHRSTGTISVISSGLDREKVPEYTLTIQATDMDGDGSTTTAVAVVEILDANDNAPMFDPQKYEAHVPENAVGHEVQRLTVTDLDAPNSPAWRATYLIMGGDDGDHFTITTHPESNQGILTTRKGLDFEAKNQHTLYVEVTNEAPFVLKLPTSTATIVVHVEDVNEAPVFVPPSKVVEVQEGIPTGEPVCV
T4 sequence (P22223 462-654 limits assumed): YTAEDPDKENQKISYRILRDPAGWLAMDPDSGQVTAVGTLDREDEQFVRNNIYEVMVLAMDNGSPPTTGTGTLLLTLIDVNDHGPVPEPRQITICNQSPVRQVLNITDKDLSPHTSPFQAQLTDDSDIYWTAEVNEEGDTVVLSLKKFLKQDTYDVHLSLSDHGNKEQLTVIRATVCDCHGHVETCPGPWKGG

binding result [1]: no binding
binding result [2]: no binding
binding result [3]: no binding
binding result [4]: no binding
B1: mouse antibody PPAT-057-17 (antibody, V domains shown)
VH: QVKLEESGPVLVAPSQSLSITCTVSGFSLTSYGVHWIRHPPGKGLEWLGVIWAGGNTIYNSALMSRLNISKDNSKSQVFLKMNSLQSDDSAMYYCAKPHYGDYAGFYALDHWGQGTSVTVSS
VL: DVQITQSPSYLAASPGETININCRASKRISKYLAWYQEKPGKTNRLLIYSGSTLQSGIPSRFSGSGSGTDFTLTISSLEPEDFAMYYCQQHNEYPWTFGGGTKLEIK
notes: Mouse monoclonal IgG from a hybridoma; kappa L chain primers were used

From patent publication US20140221620A1 (PERSEUS PROTEOMICS, published 2014)
